Earlier results, collected in PMC13351906.

Target: IL-6 receptor (Homo sapiens) (UniProt P08887)
Assay: 125I-rhIL-6 radioligand binding

Sequence of IL-6 (P05231 30-212): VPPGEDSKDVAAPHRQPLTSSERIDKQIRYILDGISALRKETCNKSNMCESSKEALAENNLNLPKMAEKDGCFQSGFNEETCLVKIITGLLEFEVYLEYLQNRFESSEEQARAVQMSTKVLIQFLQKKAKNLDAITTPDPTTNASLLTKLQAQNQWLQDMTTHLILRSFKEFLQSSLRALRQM
Sequence of UniProt P08887 (P08887 20-365): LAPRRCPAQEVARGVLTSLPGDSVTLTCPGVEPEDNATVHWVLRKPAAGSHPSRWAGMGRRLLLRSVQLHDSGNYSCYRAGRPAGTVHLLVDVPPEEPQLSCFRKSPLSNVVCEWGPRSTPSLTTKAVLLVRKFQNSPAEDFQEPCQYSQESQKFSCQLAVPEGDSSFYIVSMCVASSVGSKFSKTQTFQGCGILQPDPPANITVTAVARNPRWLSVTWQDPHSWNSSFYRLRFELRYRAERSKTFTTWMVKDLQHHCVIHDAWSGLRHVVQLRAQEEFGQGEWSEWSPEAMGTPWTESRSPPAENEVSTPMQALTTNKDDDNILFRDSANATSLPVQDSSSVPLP

Kd: 0.44 nM
Substance: IL-6 (from UniProt P05231)
